Experiments:
[1] = biological target: N-terminal HaloTag human KIF1A (amino acids 1-361) fusion protein (human) (UniProt Q12756); test: pull-down; HaloTag-Kif1a (1-361) on HaloLink magnetic beads under saturated conditions; MTs with or without full-length human Dcx; 5 μM of each protein; 4 mM ATP, ADP or AMP-PNP; supernatant and pellet, silver staining, densitometry, bound fraction P/(S+P) normalized to ATP without Dcx
[2] = biological target: MTs of the traditional MT pull-down assay from lysates; test: pull-down; traditional MT pull-down assay with AMP-PNP; lysates from HEK cells expressing Kif1 (1-365) with or without Dcx (amino acids 1-270); excess MTs

fold increase of Kif1a-MT binding with Dcx in the presence of ADP, against a Dcx-negative control [1]	increase in binding of Kif1a to MTs with Dcx (amino acids 1-270) over control [2]	Molecule
2 fold		porcine MTs (microtubules) (complex)
	15 to 20%	motor domain of Kif1 (amino acids 1-365) (domain or fragment) MAGASVKVAVRVRPFNSREMSRDSKCIIQMSGSTTTIVNPKQPKETPKSFSFDYSYWSHTSPEDINYASQKQVYRDIGEEMLQHAFEGYNVCIFAYGQTGAGKSYTMMGKQEKDQQGIIPQLCEDLFSRINDTTNDNMSYSVEVSYMEIYCERVRDLLNPKNKGNLRVREHPLLGPYVEDLSKLAVTSYNDIQDLMDSGNKARTVAATNMNETSSRSHAVFNIIFTQKRHDAETNITTEKVSKISLVDLAGSERADSTGAKGTRLKEGANINKSLTTLGKVISALAEMDSGPNKNKKKKKTDFIPYRDSVLTWLLRENLGGNSRTAMVAALSPADINYDETLSTLRYADRAKQIRCNAVINEDPN

— PMC3549492
